According to patent US11666658B2, “Rifamycin analogs and antibody-drug conjugates thereof” (Regeneron Pharmaceuticals, Inc., priority 2018, dated 2023):
Where a chain is given by its changes, count along the chain named. In names and notes the source's numbering stands.

Legend:
[1] = target: T1, Ox-LDL binding to His9-hMSR1 (Homo sapiens, UniProt P21757); assay: Competition sandwich ELISA, Ox-LDL; settings: anti-MSR1 antibody 500 nM, Ox-LDL 10 nM
T1 construct: human MSR1 extracellular domain expressed with a N-terminal nonahistidine tag; purchased R&D Systems 2708-MS
T1 sequence (P21757 77-451 limits assumed): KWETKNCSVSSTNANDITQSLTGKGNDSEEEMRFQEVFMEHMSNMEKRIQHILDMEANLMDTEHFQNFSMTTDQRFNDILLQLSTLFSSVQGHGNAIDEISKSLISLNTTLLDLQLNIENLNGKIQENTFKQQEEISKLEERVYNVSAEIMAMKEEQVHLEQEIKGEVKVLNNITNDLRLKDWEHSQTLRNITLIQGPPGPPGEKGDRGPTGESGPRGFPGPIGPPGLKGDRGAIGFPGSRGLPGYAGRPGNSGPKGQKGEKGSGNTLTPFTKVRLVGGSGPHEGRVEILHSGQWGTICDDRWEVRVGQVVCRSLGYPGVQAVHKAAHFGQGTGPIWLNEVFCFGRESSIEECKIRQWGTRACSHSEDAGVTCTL
Method: (§1) The ability of anti-MSR1 antibodies disclosed herein to block the binding of various ligands to human MSR1 was measured using three competition sandwich ELISA assays. The ligands used in the assays were: (1) acetylated LDL (Ac-LDL), (2) oxidized LDL (Ox-LDL), and (3) advanced glycation end-products of bovine serum albumin (AGE-BSA).
(§2) Anti-MSR1 antibodies or isotype control antibodies were serially diluted as appropriate for each tested ligand and added in duplicate for each serial dilution set to microtiter plates coated with His9-hMSR1. Buffer alone was also added to wells on each coat. […] This assay was conducted in four different assay runs.
(§3) Data analysis was performed using a sigmoidal dose-response model within Prism™ software (GraphPad). Percent blockade at maximum concentration of the antibody tested in each assay was calculated as an indicator of the ability of the antibodies to block the binding of Ac-LDL, Ox-LDL or biot-AGE-BSA to His9-hMSR1 on the plate relative to the baseline of the assay. In the calculation, binding signal of the same concentrations of Ac-LDL, Ox-LDL, or biot-AGE-BSA used for the assays in the absence of antibody was referenced as 100% binding or 0% blocking, while the baseline of the assay, defined as binding signal of the sample of buffer without MSR1 ligands or antibody, was referenced as 0% binding or 100% blocking. The maximum percent blockade at the highest concentration of antibody tested in each assay are reported for all antibodies.

His9-hMSR1 = target: T2, His9-hMSR1 (Homo sapiens, UniProt P21757); assay: Cross-competition between anti-MSR1 antibodies (OCTET bio-layer interferometry); type: binding; settings: label = first mAb (mAb-1) on His9-hMSR1 captured with anti-Penta-His Octet biosensors; value = competing mAb-2
T2 construct: human MSR1 extracellular domain expressed with a N-terminal nonahistidine tag; purchased R&D Systems 2708-MS
T2 sequence (P21757 77-451 limits assumed): T1 sequence (P21757 77-451 limits assumed)
Method: Binding competition between different anti-MSR1 antibodies was assessed using a real time, label-free bio-layer interferometry assay on an OCTET® HTX biosensor platform (Pall FortéBio Corp., Menlo Park, Calif.). The experiment was performed at 25° C. in 10 mM HEPES, 150 mM NaCl, 3 mM EDTA, 0.05% v/v Surfactant Tween-20, and 1 mg/mL BSA, pH 7.4 (HBS-EBT) buffer with the plate shaking at the speed of 1000 rpm.
To assess whether different antibodies are able to compete with one another for binding to their respective epitopes on the recombinant human MSR1 extracellular domain expressed with a N-terminal nonahistidine tag (SEQ ID NO: 688) (His9-hMSR1; R&D Systems, Cat #2708-MS), around […] of His9-hMSR1 was first captured onto anti-Penta-His antibody coated OCTET® biosensor tips (“Penta-His” disclosed as SEQ ID NO: 690) (Pall FortéBio Corp., #18-5122) by submerging the biosensor tips for 45 seconds into wells containing a […] solution of His9-hMSR1. The antigen-captured biosensor tips were then saturated with a first anti-MSR1 monoclonal antibody (subsequently referred to as “mAb-1”) by immersion into wells containing a […] solution of mAb-1 for 4 minutes. The biosensor tips were then submerged into wells containing a […] solution of a second anti-MSR1 monoclonal antibody (subsequently referred to as “mAb-2”) for 4 minutes. All of the biosensor tips were washed in HBS-EBT buffer in between each step of the experiment. The real-time binding response was monitored during the course of the experiment and the binding response at the end of each step was recorded. […] Table 17 explicitly defines the relationships of antibodies competing in both directions, independent of the order of binding.

[2] = target: T3, biot-AGE-BSA binding to His9-hMSR1 (Homo sapiens, UniProt P21757); assay: Competition sandwich ELISA, biot-AGE-BSA; settings: anti-MSR1 antibody 300 nM, 400 pM biot-AGE-BSA
T3 construct: human MSR1 extracellular domain expressed with a N-terminal nonahistidine tag; purchased R&D Systems 2708-MS
T3 sequence (P21757 77-451 limits assumed): T1 sequence (P21757 77-451 limits assumed)
Method: as §1
For the assay, recombinant monomeric human MSR1 protein comprised of a portion of the human MSR1 extracellular domain expressed with a N-terminal 9-Histidine tag (SEQ ID NO: 688) (His9-hMSR1; R&D Systems, Cat #2708-MS) was coated at a concentration of […] in PBS on a 96-well microtiter plate overnight at 4° C. for use in competition ELISA assays with Ac-LDL, Ox-LDL, or biotinylated-AGE-BSA (“biot-AGE-BSA”). […] Anti-MSR1 antibodies or isotype control antibodies were serially diluted as appropriate for each tested ligand and added in duplicate for each serial dilution set to microtiter plates coated with His9-hMSR1. Buffer alone was also added to wells on each coat. After 1 hour incubation at room temperature, without wash, a final constant concentration of 50 pM Ac-LDL (Life Technologies/ThermoFisher Scientific, Cat #L-35354), 5 nM or 10 nM Ox-LDL (Alfa Aesar, Cat #J65591), or 400 pM biot-AGE-BSA (R&D Systems, Cat #BT4127) were added to plates with His9-hMSR1, and the plates were incubated for an additional 1 hour at room temperature. (Concentrations of Ac-LDL, Ox-LDL and biot-AGE-BSA for antibody inhibition assays were selected from the approximate midway point within the linear portion of individual binding curves of Ac-LDL, Ox-LDL or biot-AGE-BSA to plate-coated His9-hMSR1.) Wells were washed, and plate-bound Ac-LDL or Ox-LDL were detected with anti-LDL rabbit antibody (Alfa Aesar, Cat #J64398) in combination with anti-rabbit IgG (H+L) specific donkey polyclonal antibodies conjugated with horseradish peroxidase (HRP) (JacksonImmunoResearch, Cat #711-035-152) and biot-AGE-BSA was detected with a streptavidin-HRP (ThermoFisher Scientific, Cat #N200). Plates were developed using TMB substrate solution (BD Biosciences, Cat #51-2606KC & Cat #51-2607KC) according to manufacturer's recommendation and absorbance at 450 nm was measured on a Victor™ Multilabel Plate Reader (PerkinElmer™). This assay was conducted in four different assay runs.
as §3, with “antibodies. Negative percent blockade numbers reflected higher MSR1 ligands binding to plate coated His9-hMSR1 in the presence of antibodies.” for “antibodies.”

[3] = target: T4, Ac-LDL binding to His9-hMSR1 (Homo sapiens, UniProt P21757); assay: Competition sandwich ELISA, Ac-LDL; settings: anti-MSR1 antibody 100 nM, 50 pM Ac-LDL
T4 construct: human MSR1 extracellular domain expressed with a N-terminal nonahistidine tag; purchased R&D Systems 2708-MS
T4 sequence (P21757 77-451 limits assumed): T1 sequence (P21757 77-451 limits assumed)
Method: as §1, §2, §3

[4] = target: T5, MSR1-mediated DiI-OxLDL uptake in HEK293.Myc.hMSR1 cells (Homo sapiens, UniProt P21757); assay: Ligand uptake assay, DiI-OxLDL; type: cell-based
T5 construct: expressed in transfected cells; host or cells: HEK293 (lentiviral transduction, hygromycin selection)
T5 sequence (P21757 1-451): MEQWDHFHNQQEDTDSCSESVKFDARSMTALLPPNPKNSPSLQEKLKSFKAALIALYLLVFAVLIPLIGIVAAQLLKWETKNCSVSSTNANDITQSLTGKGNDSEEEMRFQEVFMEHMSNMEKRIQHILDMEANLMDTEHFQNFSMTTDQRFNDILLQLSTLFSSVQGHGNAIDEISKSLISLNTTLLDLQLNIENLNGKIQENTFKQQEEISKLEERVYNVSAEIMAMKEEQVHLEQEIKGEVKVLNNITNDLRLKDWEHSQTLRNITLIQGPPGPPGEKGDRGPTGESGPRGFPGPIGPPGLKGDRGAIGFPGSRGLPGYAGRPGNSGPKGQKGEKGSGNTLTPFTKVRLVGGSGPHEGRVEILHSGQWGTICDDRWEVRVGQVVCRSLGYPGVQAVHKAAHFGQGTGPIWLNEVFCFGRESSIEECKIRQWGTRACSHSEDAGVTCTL
Method: The resulting cell line, referred to here as “HEK293.Myc.hMSR1”, was selected and maintained in DMEM containing 10% FBS, NEAA, penicillin/streptomycin, L-glutamine, and 100 μg/mL hygromycin.
After 30 minutes, either oxidized or acetylated low-density lipoprotein (LDL) labeled with 1,1′ dioctadecyl-3,3,3′,3′-tetramethylindocarbocyanine perchlorate (referred to as “DiI-OxLDL” or “DiI-AcLDL,” respectively) was added to the cells at a constant concentration of 10 μg/mL. […] Results were analyzed using nonlinear regression (4-parameter logistics) with the Prism 7 program to obtain EC50 and IC50 values. The percentage of inhibition was calculated with the Relative Fluorescent Unit (RFU) values by using the following equation: […]
In the equation, “RFUBaseline” is the fluorescence value from the cells treated with 10 μg/mL ligand without antibodies, “RFUInhibition” is the minimum fluorescence value with for a particular antibody with 10 μg/mL ligand, and “RFUBackground” is the fluorescence value from cells without any ligand or antibodies.

B1: H1H21227N-N297Q: "modified versions of 21227N (H1H21227N-N297Q and H1H21227N-N297D)"; anti-MSR1 antibody "with a N297Q single point mutation" (antibody, V domains shown)
VH: QVQLVQSGAEVKKPGASVKVSCKVSGYTLTELSIHWVRQVPGKGLEWMGGFDPEEGETIFAQEFRDRVTLTEDTSPDTAYMELSSLKSEDAAVYYCTTPRYCNNGICYDYWGQGTLVTVSS
VL: DIQMTQSPSSLSASVGDRVTITCRASQSISNYLNWYQQKPGKAPKLLIYTASSLQSGVPSRFSGSGSGTDFTLTISSLQTEDFATYYCQQSYSNFPITFGQGTRLEIKR
B1 was tested, and the “% Blocking of Ox-LDL binding to His9-hMSR1” value (from here on “% Blocking of Ox-LDL binding”) [1] was 97%, the “mAb-2 antibodies which Compete with mAb-1” value (His9-hMSR1) was “Data Inconclusive**” and the “% Blocking of biot-AGE-BSA binding to His9-hMSR1” value [2] was 96%. For the same molecule, the “% Blocking of Ac-LDL binding to His9-hMSR1” value (“% Blocking of Ac-LDL binding” for short) [3] was 105%.

B2: H1H21231N: "Three anti-MSR1 antibodies ... (21227N, 21231N, 21234N) were produced with the original human Fcγ portion" (antibody, V domains shown)
VH: EVQLVESGGGLVQPGGSLRLSCAASGFTFSDHYMDWVRQAPGKGLEWVGRTRNKANSHTTEYTASVTGRFTISRDDSRNSLYLQMNSLKTEDTAVYYCVRAGIIGTLFDYWGQGTLVTVSS
VL: B1 VL with S7F, N31S, Y32F, Y36F, L46F, T50A, T80P, N94S, F95P
With B2 the “% Blocking of Ox-LDL binding” value [1] was 22%, the “% Blocking of biot-AGE-BSA binding to His9-hMSR1” value [2] was −44% and the “% Blocking of Ac-LDL binding” value [3] was −62%.

B3: H1H21227N: "Three anti-MSR1 antibodies ... (21227N, 21231N, 21234N) were produced with the original human Fcγ portion" (antibody, V domains shown)
VH: B1 VH
VL: B1 VL
B3 was tested, and the “% Blocking of Ox-LDL binding” value [1] was 100%, the “mAb-2 antibodies which Compete with mAb-1” value (His9-hMSR1) was “Data Inconclusive**” and the “% Blocking of biot-AGE-BSA binding to His9-hMSR1” value [2] was 99%. For the same molecule, the “% Blocking of Ac-LDL binding” value [3] was 105%.

B4: H1H27729P-N297Q: anti-MSR1 antibody; "Antibody H1H27729P-N297Q showed no inhibition of DiI-OxLDL uptake" (antibody, V domains shown)
VH: QVQLVESGGGLVKPGGSLRLSCAASGFIFSDYYMSWIRQAPGKGLEWVSYISSSGTTIYGDSVKGRFTMSRDNAKNSLYLQMNSLRAEDTAVYYCARNYALFDYWGQGTLVTVSS
VL: DIQMTQSPSSLSASVGDRVTITCQASQDISKYLNWYQQKPGKAPKLLIYYTSNLETGVPSRFSGSGSGTDFTFTISSLQPEDIATYYCHQSDYLPFTFGPGTKVDIKR
B4 was tested, and the “inhibition of DiI-OxLDL uptake (in words)” value [4] was “no inhibition of DiI-OxLDL uptake”, the “IC50, Dil-Oxidized LDL” value ([4]; 10 μg/mL DiI-OxLDL) was “no inhibition” and the “% Inhibition, Dil-Oxidized LDL” value ([4]; maximum inhibition of uptake, 10 μg/mL DiI-OxLDL) was “no inhibition”. The “mAb-2 antibodies which Compete with mAb-1” value (His9-hMSR1) was “Data Inconclusive**”.
